What was measured:
P. aeruginosa 6294 (O6) = assay: Acute pneumonia model in mice, strain 6294; format: in vivo, Pseudomonas aeruginosa; conditions: for Overall Impression, lung histology: BALB/c mice
Procedure: (§1) Antibodies or PBS were administered 24 hours before infection in each model. P. aeruginosa acute pneumonia, keratitis, and thermal injury infection models were performed as described (DiGiandomenico, A., et al., Proc Natl Acad Sci USA 104, 4624-4629 (2007)), with modifications. In the acute pneumonia model, BALB/c mice (The Jackson Laboratory) were infected with P. aeruginosa strains suspended in a 0.05 ml inoculum. In the thermal injury model, CF-1 mice (Charles River) received a 10% total body surface area burn with a metal brand heated to 92° C. for 10 seconds. Animals were infected subcutaneously with P. aeruginosa strain 6077 at the indicated dose. For organ burden experiments, acute pneumonia was induced in mice followed by harvesting of lungs, spleens, and kidneys 24 hours post-infection for determination of CFU.

[1] = system: P. aeruginosa 6077 (exoU+); assay: Rabbit red blood cell lysis inhibition assay with strain 6077; format: cell-based, Pseudomonas aeruginosa; conditions: FIG. 12F
Procedure: Percent inhibition of cytotoxicity analysis was analysed for the parental V2L2 mAb, mAb166 (positive control) and R347 (negative control), where the antibodies were administered to cultured broncho-epithelial cell line A549 combined with log-phase P. aeruginosa strain 6077 (exoU+) at a MOI of approximately 10. A549 lysis was assayed by measuring released lactate dehydrogenase (LDH) activity and lysis in the presence of mAbs was compared to wells without mAb to determine percent inhibition. The V2L2 mAb, mAb166 (positive control) and R347 (negative control) were evaluated for their ability to prevent lysis of RBCs, where the antibodies were mixed with log-phase P. aeruginosa 6077 (exoU^+) and washed rabbit red blood cells (RBCs) and incubated for 2 hours at 37°. Intact RBCs were pelleted and the extent of lysis determined by measuring the OD405 of the cell-free supernatant. Lysis in the presence of anti-PcrV mAbs was compared to wells without mAb to determine percent inhibition.

[2] = system: P. aeruginosa 6077 (O11, cytotoxic); assay: Acute pneumonia model in mice, strain 6077; format: in vivo, Pseudomonas aeruginosa; conditions: IP 24 h prior to intranasal 6077 (1×10^6 CFU/animal); FIG. 13E-G
Procedure: as §1

[3] = system: P. aeruginosa PA103A (O11); assay: Acute pneumonia model in mice, strain PA103A; format: in vivo, Pseudomonas aeruginosa; conditions: V2L2 0.04-5 mg/kg, FIG. 13I
Procedure: as §1
The in vivo effect of administration of an anti-PcrV antibodies was studied in mice using an acute pneumonia model. Groups of mice were treated with either increasing concentrations of the V2L2 antibody, a positive control anti-PcrV antibody (mAb166), or a negative control (R347), as shown in FIG. 13 (A-B). Groups of mice were also treated with either increasing concentrations of the V2L2 antibody, the PcrV antibody PcrV-02, or a negative control (R347), as shown in FIG. 13 (C-D). […]

[4] = system: P. aeruginosa 6206 (O11-ExoU+); assay: Acute pneumonia model in mice, strain 6206; format: in vivo, Pseudomonas aeruginosa
Procedure: as §1

[5] = 1.33×10^7 CFU 6294, 0.2 mg/kg (combination 0.1 mg/kg ea), Table 6A
[6] = 1.7×10^7 CFU 6294, 0.2 mg/kg (combination 0.1 mg/kg ea), Table 6B
[7] = 5.25×10^5 cfu 6206, single antibody: R347 2.1 mg/kg, V2L2 0.1 mg/kg, WapR-004 0.5 mg/kg, Table 5
[8] = 9.25×10^5 CFU 6206, 0.2 mg/kg (combination 0.1 mg/kg ea), Table 7
[9] = V2L2 0.07-5 mg/kg, intranasal 6206, FIG. 14A-B

B1: V2L2: anti-PcrV monoclonal antibody, epitope class 4; VH SEQ ID NO: 216, VL SEQ ID NO: 217 (antibody, V domains shown)
VH: EMQLLESGGGLVQPGGSLRLSCAASGFTFSSYAMNWVRQAPGEGLEWVSAITISGITAYYTDSVKGRFTISRDNSKNTLYLQMNSLRAGDTAVYYCAKEEFLPGTHYYYGMDVWGQGTTVTVSS
VL: AIQMTQSPSSLSASVGDRVTITCRASQGIRNDLGWYQQKPGKAPKLVIYSASTLQSGVPSRFSGSGSGTDFTLSISSLQPDDFATYYCLQDYNYPWTFGQGTKVEIK
modifications: V2L2 VH; V2L2 VL
For B1, which “protection compared to mAb166 at similar doses” value (P. aeruginosa 6294 (O6); 1 mg/kg, strain 6294, FIG. 13B) is on record?
The value was “significantly more potent protection than mAb166”.

And the Bacteria (P. aeruginosa 6294 (O6); [5])?
Its Bacteria is “Neg-1+”.

And the “Hemorrhage, extent in words” value (P. aeruginosa 6294 (O6); [5])?
The value was “Extensive”.

What about the “Inflammatory Infiltrate” value (P. aeruginosa 6294 (O6); [5]) of the same molecule?
Its value is “PMN 3+”.

What about the “Involved Lung Surface Area” value (P. aeruginosa 6294 (O6); [5]) of the same molecule?
Its value is 57%.

And the Bacteria (P. aeruginosa 6294 (O6); [6])?
The Bacteria was “Neg”.

What about the “Inflammatory Infiltrate” value (P. aeruginosa 6294 (O6); [6]) of the same molecule?
The value was “PMN 2+”.

And the “Involved Lung Surface Area” value (P. aeruginosa 6294 (O6); 1.7×10^7 CFU 6294, 0.2 mg/kg, Table 6B)?
The value was 30%.

And the “protection against additional strains” value (P. aeruginosa 6294 (O6); 6294, V2L2 0.04-5 mg/kg, FIG. 13I)?
Its value is “protects against additional Pseudomonas strains”.

What about the “Overall Impression, lung histology” value (P. aeruginosa 6294 (O6); [5]) of the same molecule?
Its value is “Broncho interstitial pneumonia”.

What about the “Overall Impression, lung histology” value (P. aeruginosa 6294 (O6); [6]) of the same molecule?
Its value is “Broncho interstitial pneumonia”.

And the effect on survival (P. aeruginosa 6294 (O6); increasing doses of V2L2 24 h before infection, out to 168 hours post-infection, FIG. 13)?
The effect on survival was “dose-dependent effect on improved survival”.

What about the “potency in prevention of RBC lysis, V2L2 vs. 29D2” value [1] of the same molecule?
The value was “more potent in prevention of RBC lysis than the 29D2”.

And the “protection in vivo (survival)” value [2]?
Its value is “provides protection in vivo”.

What about the “protection against additional strains” value [3] of the same molecule?
The value was “protects against additional Pseudomonas strains”.

And the “reduction in organ CFU compared to mAb166 at similar doses” value ([4]; 1 mg/kg, lung, FIG. 14B)?
The value was “significantly greater reduction in organ CFU than mAb166”.

And the “organ burden / tissue clearance (lung, spleen, kidney CFU)” value ([4]; 5.25×10^5 cfu 6206, V2L2 0.1 mg/kg, W4-RAD 0.5 mg/kg, combination, 24 h post infection, FIG. 15)?
Its value is “effective in lowering organ burden”.

What about the “Inflammatory Infiltrate” value [4, 7] of the same molecule?
Its value is “PMN 3+”.

And the “Involved Lung Surface Area” value [4, 7]?
The value was 55%.

And the “Overall Impression, lung histology” value [4, 7]?
The value was “Broncho interstitial pneumonia”.

What about the “Inflammatory Infiltrate” value [4, 8] of the same molecule?
Its value is “PMN 2-3+”.

And the “Involved Lung Surface Area” value [4, 8]?
The value was 40%.

And the “survival, in words” value ([4]; 6206, Bs3-V2L2 0.28 mg/kg, V2L2 0.2 mg/kg 24 h before infection, monitored 120 hours, FIG. 21A)?
Its value is “survived, along with those which received the V2L2 control”.

What about the “Overall Impression, lung histology” value ([4]; BALB/c mice, 9.25×10^5 CFU 6206, 0.2 mg/kg (combination 0.1 mg/kg ea), Table 7) of the same molecule?
Its value is “Broncho interstitial pneumonia”.

And the “clearance in the kidney” value [4, 9]?
Its value is “little effect on clearance in the kidney”.

And the “dissemination to lung and spleen” value [4, 9]?
The value was “greatly reduced dissemination to both the lung and spleen in a dose-dependent manner”.
